# Results taken from patent US20240247301A1, “DIAGNOSTIC ASSAY FOR CLASSIC INBORN GALACTOSEMIA” (Ohio State Innovation Foundation, priority 2022, published 2024).
# Values joined by “and” are separate entries in the source; they are usually repeats but may differ in a detail not shown here. Equal entries are not always repeated.
# System: O=P(O)(O)O[C@H]1O[C@H](CO)[C@@H](O)[C@H](O)[C@H]1O
# Test: YidA phosphatase activity (malachite green), dephosphorylation of Glc-1-P
# Format: biochemical, Salmonella typhimurium
# Excerpt: The sugar phosphate phosphatase produced from an engineered cell can be identical to a naturally occurring one, such as YidA or YihX, but placed within a cell in which it is not naturally produced. Examples of this approach are given throughout. The sequence for YidA from Salmonella typhimurium can be found, for example, in NC_492731.1. This sequence corresponds to SEQ ID NO: 1. The gene ID is 1255358. The sequence for YihX from Salmonella typhimurium can be found, for example, in NC_462906.1. This corresponds to SEQ ID NO: 2. The gene ID is 1255552. In one example, genes encoding these proteins can be placed within a cell in which it is not naturally occurring.
# Nearly homogeneous recombinant Salmonella YidA by overexpressing it in E. coli SixPack cells were obtained (Lipinszki et al. 2018) (FIG. 3A). N-terminal fusions with a small ubiquitin-like modifier (SUMO) domain were engineered to enhance solubility (Marblestone et al. 2006) and a His6 tag to facilitate affinity purification (FIG. 3A). […] Since YidA is a Mg^2+-dependent phosphatase, its activity with Glc-1-P in the presence of 0-5 mM MgCl2 was first tested and determined that 3 mM MgCl2 was optimal (FIG. 5). […]
substance,measurement,setting,value
"Salmonella typhimurium YidA, recombinant wild type, SEQ ID NO: 1 (Salmonella enterica subsp. enterica serovar Typhimurium str. LT2)",Km,"other: mean ± SE of two independent trials, pH 8.0",1340 ± 20 µM and 1350 ± 10 µM
same,Km,"other: single trials, ± curve-fit error, pH 8, 37° C., 3 mM MgCl2, 37.0 °C",1340 ± 300 µM and 1350 ± 300 µM
